Test results as given in the supplement of paper PMC10126150.
± gives the standard deviation of the averaged measurements.

System: ATP
Assay: switch fluorescence ratio, 500 uM ATP over buffer (Cy3 cluster intensity, sum of 5 cycles each) (fold (ratio)); higher = stronger signal-on switching upon ATP binding; sequences stand for … in TCGTCGGCAGCGTCAGATGTGTATAAGAGACAGTTTTTTTTTTTTTTTTTTTTTTTTT…TC
Conditions: aptamer strand: ATP DNA aptamer (quencher-CACCTGGGGGAGTATTGCGGAGGAAGG + anchor), 100 nM annealed; ATP concentration: 500 uM
Method in brief: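 Cy3-labelled switching-strand clusters on a modified Illumina MiSeq flow-cell were annealed to 100 nM quencher-labelled ATP aptamer and imaged first in selection buffer, then after 15 min with 500 uM ATP at 22 °C. NaOH stripping and re-annealing separated each of five buffer/ATP cycles, and clusters outside 100-1000 RFU were excluded. The fluorescence ratio sums target-cycle Cy3 intensity over buffer-cycle Cy3 intensity per cluster and averages it per switch-domain sequence.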
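Also: ATP exposure 15 min at 22 °C before imaging.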

Sequence | switch fluorescence ratio
AATAAAAATG | 1.02 ± 0.027
AATAAACGCT | 1.04 ± 0.074
AATAAAGGGG | 1.19 ± 0.25
AATAAATCCT | 1.22 ± 0.021
AATAAATTGA | 1.02 ± 0.04
AATAACTCCG | 1.224 ± 0.008
AATAAGAAAT | 0.994 ± 0.015
AATAATCAAA | 1.01 ± 0.006
AATACAAGGC | 1.076 ± 0.006
AATACCAAAT | 0.999 ± 0.049
AATACCGGCA | 1.04 ± 0.045
AATACCTTTC | 2.3 ± 0.14
AATACGGGG | 0.985 ± 0.016
AATACGGGGG | 1.03 ± 0.13
AATAGAACTT | 1.02 ± 0.061
AATAGAGGAT | 0.971 ± 0.039
AATAGATATG | 1.01 ± 0.0018
AATAGCATTG | 0.972 ± 0.029
AATAGCGACT | 1.026 ± 0.0052
AATAGGACAA | 0.982 ± 0.037
AATAGGATAG | 1.02 ± 0.011
AATAGGCACC | 0.993 ± 0.018

Sequence | switch fluorescence ratio
AATAGGCATG | 0.979 ± 0.0098
AATAGGCGCG | 1.02 ± 0.014
AATAGGGTCG | 0.975 ± 0.064
AATAGGTTGT | 0.992 ± 0.015
AATAGTGCCC | 0.999 ± 0.053
AATAGTGGTA | 1 ± 0.029
AATAGTGTCC | 1.01 ± 0.032
AATAGTTATT | 0.9791 ± 0.003
AATATAAAGG | 1 ± 0.031
AATATACGT | 1.05 ± 0.032
AATATAGGAA | 1.016 ± 0.0092
AATATATCGC | 0.977 ± 0.018
AATATCGGGT | 0.97 ± 0.019
AATATCTGTT | 0.997 ± 0.019
AATATCTTGC | 1.05 ± 0.028
AATATGAAGG | 1 ± 0.019
AATATGTAAT | 0.989 ± 0.021
AATATGTTTT | 1.01 ± 0.026
AATATTTAAC | 0.9828 ± 0.0024
AATATTTGAA | 1.02 ± 0.021
AATATTTTAT | 1.014 ± 0.0022
AATATTTTCG | 0.998 ± 0.038

Sequence | switch fluorescence ratio
AATATTTTGT | 0.9833 ± 0.004
AATCAAACTA | 1.05 ± 0.028
AATCAAGTCT | 0.999 ± 0.011
AATCAGAGCG | 1.021 ± 0.0021
AATCAGGAAG | 1.02 ± 0.035
AATCAGGCGA | 1.013 ± 0.0032
AATCATCGGT | 0.999 ± 0.027
AATCATGCGA | 0.9964 ± 0.0078
AATCATTTTT | 0.986 ± 0.026
AATCCGACGA | 1.66 ± 0.17
AATCCGTCAT | 1.14 ± 0.017
AATCGATCGG | 1.01 ± 0.028
AATCGCTCTG | 1.01 ± 0.027
AATCGCTTTT | 1 ± 0.053
AATCGGCGGG | 0.975 ± 0.022
AATCGGTCGT | 0.994 ± 0.031
AATCGGTTTG | 0.987 ± 0.029
AATCGTCATC | 0.991 ± 0.016
AATCGTCTTG | 0.97 ± 0.034
AATCGTGGAA | 1.01 ± 0.019
AATCGTGGGG | 0.975 ± 0.017
AATCTAGATT | 1.002 ± 0.003

Sequence | switch fluorescence ratio
AATCTATCCC | 1.027 ± 0.0042
AATCTGATGG | 0.974 ± 0.044
AATCTGGACG | 1.06 ± 0.048
AATCTGTCGT | 0.982 ± 0.054
AATCTTCTTA | 1.001 ± 0.0034
AATGAAAAAC | 1.007 ± 0.0054
AATGAACGTT | 1.03 ± 0.078
AATGAAGTTT | 1.43 ± 0.7
AATGAGACAG | 1 ± 0.02
AATGAGATTG | 0.989 ± 0.012
AATGAGGGGT | 0.966 ± 0.031
AATGATAGTT | 0.986 ± 0.02
AATGATATTG | 0.998 ± 0.032
AATGATTCTT | 0.98 ± 0.016
AATGATTGCG | 1 ± 0.039
AATGCGTTTT | 1.04 ± 0.023
AATGCTCGGC | 0.9646 ± 0.0092
AATGCTGTAT | 0.985 ± 0.011
AATGGAATCC | 1.02 ± 0.035
